Measurements reported in US20160123962A1 (ALBERT EINSTEIN COLLEGE OF MEDICINE, published 2016).

B1: human IL-34 (interleukin-34) (ligand, UniProt Q6ZMJ4 21-242, looked up)
chain: NEPLEMWPLTQNEECTVTGFLRDKLQYRSRLQYMKHYFPINYKISVPYEGVFRIANVTRLQRAQVSERELRYLWVLVSLSATESVQDVLLEGHPSWKYLQEVETLLLNVQQGLTDVEVSPKVESVLSLLNAPGPNLKLVRPKALLDNCFRVMELLYCSCCKQSSVLNWQDCEVPSPQSCSPEPSLQYAATQLYPPPPWSPSSPPHSTGSVRPVRAQGEGLLP
modifications: biotinylated with EZ-Link Sulfo-NHS-LC-LC-Biotin in the pull-down and flow cytometry assays; unlabelled in SPR
notes: Purified protein; also called hIL-34; biotinylated hIL-34
B2: FLAG-tagged human IL-34 (ligand, UniProt Q6ZMJ4 21-242, looked up)
chain: B1 chain
notes: also called IL-34-FLAG; not shown: FLAG tag
B3: human recombinant CSF-1 (colony stimulating factor-1) (ligand, UniProt P09603 36-253, looked up)
chain: SEYCSHMIGSGHLQSLQRLIDSQMETSCQITFEFVDQEQLKDPVCYLKKAFLLVQDIMEDTMRFRDNTPNAIAIVQLQELSLRLKSCFTKDYEEHDKACVRTFYETPLQLLEKVKNVFNETKNLLDKDWNIFSKNCNNSFAECSSQDVVTKPDCNCLYPKAIPSSDPASVSPHQPLAPSMAPVAGLTWEDSEGTEGSSLLPGEQPLHTVDPGSAKQRP
notes: also called hCSF-1
B4: human tenascin-R (hTN-R) (other, UniProt Q92752 32-1358, looked up)
chain: QLEVTTERVQRQSVEEEGGIANYNTSSKEQPVVFNHVYNINVPLDNLCSSGLEASAEQEVSAEDETLAEYMGQTSDHESQVTFTHRINFPKKACPCASSAQVLQELLSRIEMLEREVSVLRDQCNANCCQESAATGQLDYIPHCSGHGNFSFESCGCICNEGWFGKNCSEPYCPLGCSSRGVCVDGQCICDSEYSGDDCSELRCPTDCSSRGLCVDGECVCEEPYTGEDCRELRCPGDCSGKGRCANGTCLCEEGYVGEDCGQRQCLNACSGRGQCEEGLCVCEEGYQGPDCSAVAPPEDLRVAGISDRSIELEWDGPMAVTEYVISYQPTALGGLQLQQRVPGDWSGVTITELEPGLTYNISVYAVISNILSLPITAKVATHLSTPQGLQFKTITETTVEVQWEPFSFSFDGWEISFIPKNNEGGVIAQVPSDVTSFNQTGLKPGEEYIVNVVALKEQARSPPTSASVSTVIDGPTQILVRDVSDTVAFVEWIPPRAKVDFILLKYGLVGGEGGRTTFRLQPPLSQYSVQALRPGSRYEVSVSAVRGTNESDSATTQFTTEIDAPKNLRVGSRTATSLDLEWDNSEAEVQEYKVVYSTLAGEQYHEVLVPRGIGPTTRATLTDLVPGTEYGVGISAVMNSQQSVPATMNARTELDSPRDLMVTASSETSISLIWTKASGPIDHYRITFTPSSGIASEVTVPKDRTSYTLTDLEPGAEYIISVTAERGRQQSLESTVDAFTGFRPISHLHFSHVTSSSVNITWSDPSPPADRLILNYSPRDEEEEMMEVSLDATKRHAVLMGLQPATEYIVNLVAVHGTVTSEPIVGSITTGIDPPKDITISNVTKDSVMVSWSPPVASFDYYRVSYRPTQVGRLDSSVVPNTVTEFTITRLNPATEYEISLNSVRGREESERICTLVHTAMDNPVDLIATNITPTEALLQWKAPVGEVENYVIVLTHFAVAGETILVDGVSEEFRLVDLLPSTHYTATMYATNGPLTSGTISTNFSTLLDPPANLTASEVTRQSALISWQPPRAEIENYVLTYKSTDGSRKELIVDAEDTWIRLEGLLENTDYTVLLQAAQDTTWSSITSTAFTTGGRVFPHPQDCAQHLMNGDTLSGVYPIFLNGELSQKLQVYCDMTTDGGGWIVFQRRQNGQTDFFRKWADYRVGFGNVEDEFWLGLDNIHRITSQGRYELRVDMRDGQEAAFASYDRFSVEDSRNLYKLRIGSYNGTAGDSLSYHQGRPFSTEDRDNDVAVTNCAMSYKGAWWYKNCHRTNLNGKYGESRHSQGINWYHWKGHEFSIPFVEMKMRPYNHRLMAGRKRQSLQF
notes: Extracellular matrix protein used as analyte in SPR
B5: FLAG-tagged human CSF-1 (ligand, UniProt P09603 33-255, looked up)
chain: EEVSEYCSHMIGSGHLQSLQRLIDSQMETSCQITFEFVDQEQLKDPVCYLKKAFLLVQDIMEDTMRFRDNTPNAIAIVQLQELSLRLKSCFTKDYEEHDKACVRTFYETPLQLLEKVKNVFNETKNLLDKDWNIFSKNCNNSFAECSSQDVVTKPDCNCLYPKAIPSSDPASVSPHQPLAPSMAPVAGLTWEDSEGTEGSSLLPGEQPLHTVDPGSAKQRPPR
notes: also called CSF-1-FLAG; not shown: FLAG tag

Legend:
[1] = molecular target: human PTP-ζ (protein tyrosine phosphatase receptor type zeta) of U251 human glioblastoma cells (human) (UniProt P23471); test: cell-based or functional assay
[2] = molecular target: T1, human PTP-ζ extracellular domain fused to immunoglobulin Fc domain (hPTP-ζ-ECD-Fc) (human, UniProt P23471 25-1636); test: SPR (Biacore T100), hPTP-ζ-ECD-Fc captured on Protein A, hIL-34 as analyte, steady state model; hIL-34 on full-length hPTP-ζ ECD-Fc
T1 construct: also called full-length hPTP-ζ ECD-Fc; not shown: immunoglobulin Fc domain
Description: (§1) SPR binding analyses were performed at 25° C. on Biacore instruments. […] The protein A surface was regenerated with 10 mM Glycine-HCl, pH 1.5. […] All sensorgrams were double-referenced.

human brevican = molecular target: T2, human brevican (human, UniProt Q96GW7 23-911, limits assumed); test: SPR, brevican immobilized on the chip, hIL-34 as analyte; IL-34 with human brevican
T2 construct: Proteoglycan immobilized on the SPR chip
T2 sequence (looked up): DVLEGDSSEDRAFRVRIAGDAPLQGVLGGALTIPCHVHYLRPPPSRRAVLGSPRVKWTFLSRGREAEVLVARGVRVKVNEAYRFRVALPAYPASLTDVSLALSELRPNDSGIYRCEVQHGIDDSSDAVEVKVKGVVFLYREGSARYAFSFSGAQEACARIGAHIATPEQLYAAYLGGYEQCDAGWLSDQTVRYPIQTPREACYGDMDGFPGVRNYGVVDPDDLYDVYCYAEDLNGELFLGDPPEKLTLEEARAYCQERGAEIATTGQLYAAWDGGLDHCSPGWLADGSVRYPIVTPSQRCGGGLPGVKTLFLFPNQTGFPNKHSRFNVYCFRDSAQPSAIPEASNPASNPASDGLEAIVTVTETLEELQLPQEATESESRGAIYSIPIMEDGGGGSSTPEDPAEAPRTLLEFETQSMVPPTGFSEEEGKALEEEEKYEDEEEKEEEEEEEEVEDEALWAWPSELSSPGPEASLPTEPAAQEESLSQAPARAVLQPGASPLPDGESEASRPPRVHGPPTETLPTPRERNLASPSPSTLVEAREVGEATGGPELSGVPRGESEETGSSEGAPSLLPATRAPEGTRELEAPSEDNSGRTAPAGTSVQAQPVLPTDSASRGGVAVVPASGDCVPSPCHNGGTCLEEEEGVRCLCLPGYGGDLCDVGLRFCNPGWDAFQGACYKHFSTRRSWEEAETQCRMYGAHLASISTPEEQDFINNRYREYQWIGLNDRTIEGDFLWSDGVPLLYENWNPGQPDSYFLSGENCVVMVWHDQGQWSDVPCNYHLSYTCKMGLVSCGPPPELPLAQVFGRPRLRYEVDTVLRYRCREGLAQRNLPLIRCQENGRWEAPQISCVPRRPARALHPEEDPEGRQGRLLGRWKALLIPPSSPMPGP
Description: as §1

[3] = molecular target: T3, human CSF-1R extracellular domain fused to immunoglobulin Fc domain (hCSF-1R-ECD-Fc) (human, UniProt P07333 20-517); test: SPR (Biacore T100), hCSF-1R-ECD-Fc captured on Protein A, hIL-34 as analyte; hIL-34 on hCSF-1R-ECD-Fc
T3 construct: extracellular domain; not shown: immunoglobulin Fc domain
Description: as §1

human tenascin-R (hTN-R) = molecular target: B4; test: SPR (Biacore 3000), IL-34 immobilized on CM5 chip, hTN-R as analyte, steady state model; IL-34 with hTN-R
Description: as §1

[4] = molecular target: T4, human PTP-ζ (protein tyrosine phosphatase receptor type zeta) of U251 human glioblastoma cells (human, UniProt P23471 25-2315, chondroitin sulfate glycosaminoglycan chains (proteoglycan)); test: flow cytometry on U251 cells, detection with biotin-labeled anti-FLAG M2 antibody
T4 construct: Endogenous protein on intact U251 cells (flow cytometry) or in OG-solubilized U251 membrane lysates (pull-down); long (~400 kDa), non-glycosaminoglycanylated (300 kDa) and short (220 kDa) isoforms are present; U251 cells lack CSF-1R; also called PTP-β/ζ; cell-surface PTP-ζ

[5] = molecular target: T3, human CSF-1R extracellular domain fused …; test: SPR (Biacore T100), hCSF-1R-ECD-Fc captured on Protein A, hCSF-1 as analyte; hCSF-1 on hCSF-1R-ECD-Fc
Description: as §1

[6] = molecular target: T1, human PTP-ζ extracellular domain fused …; test: SPR (Biacore 3000), hPTP-ζ ECD-Fc immobilized on CM5 chip, hTN-R as analyte, steady state model; TN-R with hPTP-ζ ECD-Fc
Description: as §1

[7] = molecular target: T4, human PTP-ζ (protein tyrosine …); test: flow cytometry on U251 cells, detection with biotin-labeled anti-FLAG M2 antibody, at concentrations equivalent to IL-34-FLAG

Chain of human PTP-ζ (protein tyrosine phosphatase receptor type zeta) of U251 human glioblastoma cells (human) (P23471 25-2315 limits assumed): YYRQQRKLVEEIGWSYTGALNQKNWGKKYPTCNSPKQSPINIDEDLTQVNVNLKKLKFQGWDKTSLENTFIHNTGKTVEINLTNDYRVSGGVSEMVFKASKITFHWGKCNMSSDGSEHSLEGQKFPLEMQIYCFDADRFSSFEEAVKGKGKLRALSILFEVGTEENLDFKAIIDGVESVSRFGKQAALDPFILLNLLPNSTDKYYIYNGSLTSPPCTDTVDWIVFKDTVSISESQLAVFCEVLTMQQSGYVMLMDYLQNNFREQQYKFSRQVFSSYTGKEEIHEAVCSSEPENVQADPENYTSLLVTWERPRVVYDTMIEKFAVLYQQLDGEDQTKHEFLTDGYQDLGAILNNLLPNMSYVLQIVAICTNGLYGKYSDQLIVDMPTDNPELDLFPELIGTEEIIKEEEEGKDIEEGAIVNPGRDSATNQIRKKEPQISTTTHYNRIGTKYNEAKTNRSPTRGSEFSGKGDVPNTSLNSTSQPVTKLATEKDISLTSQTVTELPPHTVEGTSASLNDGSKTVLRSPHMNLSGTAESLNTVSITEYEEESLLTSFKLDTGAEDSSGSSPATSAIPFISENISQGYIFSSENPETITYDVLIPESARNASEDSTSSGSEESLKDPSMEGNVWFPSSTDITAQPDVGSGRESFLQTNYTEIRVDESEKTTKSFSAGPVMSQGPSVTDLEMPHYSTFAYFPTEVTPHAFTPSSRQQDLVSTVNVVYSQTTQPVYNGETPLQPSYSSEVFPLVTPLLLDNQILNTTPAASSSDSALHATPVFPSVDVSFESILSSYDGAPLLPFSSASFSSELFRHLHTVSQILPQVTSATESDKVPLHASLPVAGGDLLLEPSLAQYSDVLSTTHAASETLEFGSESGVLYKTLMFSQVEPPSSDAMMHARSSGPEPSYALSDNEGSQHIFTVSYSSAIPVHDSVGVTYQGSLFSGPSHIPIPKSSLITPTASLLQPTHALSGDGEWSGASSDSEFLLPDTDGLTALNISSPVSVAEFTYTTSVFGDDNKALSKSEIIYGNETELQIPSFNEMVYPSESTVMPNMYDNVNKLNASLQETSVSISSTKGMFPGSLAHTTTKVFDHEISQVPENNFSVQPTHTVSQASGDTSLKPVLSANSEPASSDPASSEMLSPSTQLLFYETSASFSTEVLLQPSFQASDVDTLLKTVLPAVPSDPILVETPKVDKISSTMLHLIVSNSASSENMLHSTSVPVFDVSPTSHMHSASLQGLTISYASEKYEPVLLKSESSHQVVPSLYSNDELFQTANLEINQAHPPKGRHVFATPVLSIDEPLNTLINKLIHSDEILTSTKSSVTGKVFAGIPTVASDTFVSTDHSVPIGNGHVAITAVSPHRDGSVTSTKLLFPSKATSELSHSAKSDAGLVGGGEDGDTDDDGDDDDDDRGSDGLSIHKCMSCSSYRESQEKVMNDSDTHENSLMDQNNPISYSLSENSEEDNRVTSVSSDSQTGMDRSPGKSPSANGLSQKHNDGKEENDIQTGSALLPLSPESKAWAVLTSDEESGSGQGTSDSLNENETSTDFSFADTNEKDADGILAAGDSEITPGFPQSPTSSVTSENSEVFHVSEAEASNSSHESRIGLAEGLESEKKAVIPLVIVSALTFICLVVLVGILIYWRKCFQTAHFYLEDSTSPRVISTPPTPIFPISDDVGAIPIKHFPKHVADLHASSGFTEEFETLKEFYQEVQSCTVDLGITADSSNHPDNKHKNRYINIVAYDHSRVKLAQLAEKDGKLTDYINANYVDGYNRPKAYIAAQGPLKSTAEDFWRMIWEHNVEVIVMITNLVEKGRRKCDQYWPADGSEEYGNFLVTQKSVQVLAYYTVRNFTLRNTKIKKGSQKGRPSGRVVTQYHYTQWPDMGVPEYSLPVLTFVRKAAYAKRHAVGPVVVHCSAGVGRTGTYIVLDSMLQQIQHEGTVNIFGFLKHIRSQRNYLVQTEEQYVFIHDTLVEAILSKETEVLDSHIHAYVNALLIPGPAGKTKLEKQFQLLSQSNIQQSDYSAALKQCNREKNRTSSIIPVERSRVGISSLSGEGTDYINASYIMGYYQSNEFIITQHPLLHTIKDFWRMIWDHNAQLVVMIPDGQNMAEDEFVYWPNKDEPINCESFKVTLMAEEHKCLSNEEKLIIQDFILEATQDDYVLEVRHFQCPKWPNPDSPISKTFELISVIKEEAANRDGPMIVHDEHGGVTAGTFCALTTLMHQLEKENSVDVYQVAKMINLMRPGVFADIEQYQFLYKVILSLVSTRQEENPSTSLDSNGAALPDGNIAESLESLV
T4 sequence (P23471 25-2315 limits assumed): as above
T1 sequence (P23471 25-1636): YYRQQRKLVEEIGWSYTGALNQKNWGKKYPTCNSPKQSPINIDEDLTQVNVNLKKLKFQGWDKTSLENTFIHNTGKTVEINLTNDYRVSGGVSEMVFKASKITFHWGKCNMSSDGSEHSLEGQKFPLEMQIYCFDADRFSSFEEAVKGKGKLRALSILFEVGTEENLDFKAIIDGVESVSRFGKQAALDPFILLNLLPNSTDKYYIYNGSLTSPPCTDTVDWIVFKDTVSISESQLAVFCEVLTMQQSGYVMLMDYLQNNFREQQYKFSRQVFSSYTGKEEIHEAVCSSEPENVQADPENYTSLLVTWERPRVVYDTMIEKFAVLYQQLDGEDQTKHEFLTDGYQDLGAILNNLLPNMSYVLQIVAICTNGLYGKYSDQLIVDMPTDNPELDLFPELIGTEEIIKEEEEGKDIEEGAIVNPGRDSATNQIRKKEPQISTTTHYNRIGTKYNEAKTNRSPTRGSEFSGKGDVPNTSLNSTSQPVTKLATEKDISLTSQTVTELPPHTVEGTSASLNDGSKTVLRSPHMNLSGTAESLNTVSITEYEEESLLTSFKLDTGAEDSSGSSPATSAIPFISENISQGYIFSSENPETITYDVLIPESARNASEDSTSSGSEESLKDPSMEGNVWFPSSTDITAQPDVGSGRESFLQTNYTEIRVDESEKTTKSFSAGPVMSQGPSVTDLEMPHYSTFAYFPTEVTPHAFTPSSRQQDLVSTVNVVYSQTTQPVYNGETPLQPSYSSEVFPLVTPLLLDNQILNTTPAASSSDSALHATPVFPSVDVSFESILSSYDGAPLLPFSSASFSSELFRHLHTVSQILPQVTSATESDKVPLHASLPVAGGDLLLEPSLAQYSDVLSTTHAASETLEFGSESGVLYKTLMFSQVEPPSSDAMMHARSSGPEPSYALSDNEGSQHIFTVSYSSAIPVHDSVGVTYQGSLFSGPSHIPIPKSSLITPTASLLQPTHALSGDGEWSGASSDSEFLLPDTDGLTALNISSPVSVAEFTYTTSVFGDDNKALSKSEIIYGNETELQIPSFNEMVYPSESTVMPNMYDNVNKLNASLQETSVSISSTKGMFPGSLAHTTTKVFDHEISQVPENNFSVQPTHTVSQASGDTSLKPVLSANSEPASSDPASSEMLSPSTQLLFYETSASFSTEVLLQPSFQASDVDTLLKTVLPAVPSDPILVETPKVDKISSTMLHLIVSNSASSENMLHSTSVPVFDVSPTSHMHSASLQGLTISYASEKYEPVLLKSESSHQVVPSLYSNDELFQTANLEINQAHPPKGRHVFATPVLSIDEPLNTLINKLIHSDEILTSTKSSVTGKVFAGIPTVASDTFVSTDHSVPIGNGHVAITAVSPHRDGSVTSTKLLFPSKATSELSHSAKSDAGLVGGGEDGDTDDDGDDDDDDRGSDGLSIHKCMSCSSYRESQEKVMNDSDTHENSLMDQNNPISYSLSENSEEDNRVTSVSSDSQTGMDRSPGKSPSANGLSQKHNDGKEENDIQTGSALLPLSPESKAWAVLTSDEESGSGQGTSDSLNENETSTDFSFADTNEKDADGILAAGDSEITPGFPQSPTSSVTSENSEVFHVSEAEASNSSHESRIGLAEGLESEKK
T3 sequence (P07333 20-517): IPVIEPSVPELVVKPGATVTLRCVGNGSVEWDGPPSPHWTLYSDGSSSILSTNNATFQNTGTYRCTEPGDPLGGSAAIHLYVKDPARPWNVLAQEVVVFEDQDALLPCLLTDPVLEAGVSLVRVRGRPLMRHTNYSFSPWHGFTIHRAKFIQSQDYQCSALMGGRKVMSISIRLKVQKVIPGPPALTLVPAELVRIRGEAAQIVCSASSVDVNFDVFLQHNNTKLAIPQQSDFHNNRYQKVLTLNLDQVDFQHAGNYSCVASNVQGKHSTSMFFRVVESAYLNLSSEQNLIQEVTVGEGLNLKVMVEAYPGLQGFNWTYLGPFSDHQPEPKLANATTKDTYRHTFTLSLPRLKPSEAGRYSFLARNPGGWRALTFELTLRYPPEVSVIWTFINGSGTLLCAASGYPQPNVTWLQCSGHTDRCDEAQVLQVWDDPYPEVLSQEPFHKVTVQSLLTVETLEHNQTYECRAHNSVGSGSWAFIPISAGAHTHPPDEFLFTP

human pleiotrophin (hPTN) (from UniProt P21246 33-168) (ligand)
clonogenicity of U251 cells (colony count at 8 days) [1]: 53%
wound healing of U251 monolayer, time taken for 50% wound closure (t50) [1]: 10 h

B1
Kd [2]: ~100 nM
Kd (human brevican): 3000 nM
Kd [3]: ~0.001 nM
Kd (human tenascin-R (hTN-R)): ~1000 nM

B2
binding result [4]: binds

B3
Kd [5]: ~0.01 nM

B4
Kd [6]: ~10 nM

B5
binding result [7]: no binding
